The results in this text go back to paper PMC1363732, “SUV39H1 interacts with HTLV-1 Tax and abrogates Tax transactivation of HTLV-1 LTR” (Retrovirology, 2006).

The target in assay [1] is T1, bacterially expressed GST-SUV39H1, wild type (human, UniProt O43463 1-412).
T1 construct: human SUV39H1, wild type; cDNA amplified from the start to the stop codon (SUV39H1-F1, SUV39H1-R1); the text counts the protein to amino acid 412; also called SUV39H1-WT; GST-fusion SUV39H1; source: bacterially expressed (pGEX5X-3), purified (Glutathione Sepharose 4B)
T1 sequence (looked up): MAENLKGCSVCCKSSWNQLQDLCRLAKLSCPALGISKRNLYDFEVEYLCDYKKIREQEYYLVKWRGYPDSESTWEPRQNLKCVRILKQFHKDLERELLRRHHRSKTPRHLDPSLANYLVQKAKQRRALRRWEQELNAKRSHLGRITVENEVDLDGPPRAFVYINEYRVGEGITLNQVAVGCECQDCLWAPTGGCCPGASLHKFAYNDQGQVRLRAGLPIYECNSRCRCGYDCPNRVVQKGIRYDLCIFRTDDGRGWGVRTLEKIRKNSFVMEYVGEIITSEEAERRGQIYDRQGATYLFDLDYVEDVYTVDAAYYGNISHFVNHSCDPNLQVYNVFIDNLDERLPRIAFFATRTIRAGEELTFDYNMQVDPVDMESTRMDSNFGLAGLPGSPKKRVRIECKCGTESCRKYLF
Kind of assay: pull-down; GST-SUV39H1 bound to Glutathione-Sepharose 4B, mixed with in vitro translated 35S-labeled Tax proteins (one fourth of the reaction mixture); autoradiography, signals by BAS2000. As to conditions: one partner purified.

In another assay the target is T2, GST-SUV39H1 ΔSET (human, UniProt O43463 1-249).
T2 construct: human SUV39H1 that lost the SET domain and the C-terminal cysteine-rich region but keeps the SET-associated Cys-rich (SAC) domain; the text states no limits; source: bacterially expressed (pGEX5X-3), purified (Glutathione Sepharose 4B)
T2 sequence (looked up): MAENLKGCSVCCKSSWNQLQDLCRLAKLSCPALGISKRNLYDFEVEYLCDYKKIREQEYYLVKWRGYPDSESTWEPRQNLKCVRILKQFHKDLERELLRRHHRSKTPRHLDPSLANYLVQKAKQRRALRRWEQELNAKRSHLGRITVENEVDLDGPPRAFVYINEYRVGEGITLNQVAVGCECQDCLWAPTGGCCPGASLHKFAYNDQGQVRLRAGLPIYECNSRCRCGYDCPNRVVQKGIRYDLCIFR
Kind of assay: pull-down; wild type or mutant GST-SUV39H1 or GST (2 ug) bound to Glutathione-Sepharose 4B, mixed with His-tagged Tax (2 ug) in cold PBS, 4°C, one hour; immunoblot with Lt-4; band intensities by NIH Image. As to conditions: both partners purified. On the technique in general: Immunoblotting shows a protein as a band on a membrane.

The target in the next assay is T3, GST-SUV39H1 Nchromo (human, UniProt O43463 1-118).
T3 construct: human SUV39H1, C-terminal deletion up to amino acid 118 (SAC domain lost); source: bacterially expressed (pGEX5X-3), purified (Glutathione Sepharose 4B)
T3 sequence (looked up): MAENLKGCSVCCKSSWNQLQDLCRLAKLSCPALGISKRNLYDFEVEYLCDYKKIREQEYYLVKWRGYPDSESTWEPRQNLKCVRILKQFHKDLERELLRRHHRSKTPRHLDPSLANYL
The assay is described as above. As to conditions: both partners purified.

B1: in vitro translated TaxN180 (domain or fragment)
chain: not shown
modifications: labeled with 35S-methionine
notes: HTLV-1 Tax with a C-terminal deletion up to 180 amino acids; source: in vitro translated (TNT QuickCoupled Transcription/Translation Systems, Promega)
In the case of B1, in assay [1], the “radioactivity relative to the wild type Tax” value is ~0.5 of the radioactivity of the wild type Tax.

B2: histidine-tagged wild type Tax (His-Tax) (natural protein)
chain: not shown
notes: Tax protein of HTLV-1, wild type; also called His-tagged Tax protein; source: bacterially expressed (pET3d/Tax), purified (ProBond Resin)
In the case of B2, the “band intensity relative to the wild type” value with GST-SUV39H1 ΔSET is < 0.5 of the band intensity of the wild type; with GST-SUV39H1 Nchromo it was ~0.1 of the band intensity of the wild type.
